According to the supplement of paper PMC10126150:
± gives the standard deviation of the averaged measurements.

System: ATP
Assay: switch fluorescence ratio, 500 uM ATP over buffer (Cy3 cluster intensity, sum of 5 cycles each) (fold (ratio)); higher = stronger signal-on switching upon ATP binding; sequences stand for … in TCGTCGGCAGCGTCAGATGTGTATAAGAGACAGTTTTTTTTTTTTTTTTTTTTTTTTT…TC
Details: aptamer strand: ATP DNA aptamer (quencher-CACCTGGGGGAGTATTGCGGAGGAAGG + anchor), 100 nM annealed; ATP concentration: 500 uM
How it was run: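 After annealing to 100 nM quencher-labelled ATP aptamer, Cy3-labelled switching-strand clusters on a modified Illumina MiSeq flow-cell were imaged in selection buffer. A second image followed after 15 min with 500 uM ATP at 22 °C, and five such buffer/ATP cycles were done, each separated by NaOH stripping and re-annealing. The fluorescence ratio, averaged per switch-domain sequence, is summed target-cycle over summed buffer-cycle Cy3 intensity per cluster, with clusters outside 100-1000 RFU excluded.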
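Note: ATP exposure 15 min at 22 °C before imaging.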

Sequence	switch fluorescence ratio
ACATTGTTTT	1.02 ± 0.021
TCAGTTCTTC	0.989 ± 0.011
TGGAGATTAG	1.01 ± 0.054
TGTCTAGTTA	0.972 ± 0.0041
AAACTACTCT	1.03 ± 0.02
TCCGGGTTGG	1.03 ± 0.013
GATCTCCCCT	1.38 ± 0.053
CAGATGGTTG	0.9835 ± 0.0041
CGTTTTATCA	0.9914 ± 0.0074
AAGCGACTCG	1.006 ± 0.0056
TTGTATTATG	1.008 ± 0.0095
AGAACCTCTT	1.06 ± 0.033
CCAGAGGTGT	1.6 ± 0.064
TTATGTACGT	1.09 ± 0.021
TGGGTAAAAT	0.971 ± 0.03
CATCGAGGAC	1.06 ± 0.072
AGGCGGAGTT	0.97011 ± 0.00078
ATTAGTAACG	1.03 ± 0.0071
TTTAATCTGG	0.968 ± 0.021
TATTAAGATA	0.987 ± 0.043
GGAGATCAGG	1.03 ± 0.027
GGGATTTATA	0.995 ± 0.019
CATAGATGGG	1.01 ± 0.015

Sequence	switch fluorescence ratio
TCTTAGGACG	0.997 ± 0.036
TTTTGTTTCC	1.01 ± 0.062
GTTGACTGGT	0.95 ± 0.016
ATATGTGGTA	1.01 ± 0.031
TAAACTATGG	1.02 ± 0.062
CGGTGTACGC	1.061 ± 0.0034
GCGCACCACG	1.06 ± 0.029
TCCTATATTG	0.986 ± 0.0023
TGATAAATGT	1.13 ± 0.19
TCTTTACAGG	1.09 ± 0.067
TTTATTGGAA	0.9858 ± 0.0091
TTTTTTGCCT	1.01 ± 0.038
ACAGCAGGGC	1.07 ± 0.07
CTTTAAGGGG	1.01 ± 0.03
GGTTCTTGAA	0.994 ± 0.019
GGGTTAGTGG	0.976 ± 0.032
GTATAGGGTT	0.9931 ± 0.007
AGCTTTGGGA	0.995 ± 0.085
TGAGTTGTTT	0.985 ± 0.013
GTGGTATTTT	0.999 ± 0.035
GATGATGGGA	0.97941 ± 0.00096
TACAGTTTCG	1.03 ± 0.05
ACGTTAGGGT	1.04 ± 0.058

Sequence	switch fluorescence ratio
GAGTGAGCAG	0.976 ± 0.022
TCCTTCACGA	2.067 ± 0.017
GGGATGAACG	1.04 ± 0.021
ACGGGAAAAG	1.01 ± 0.035
TCGGGGATCT	1.033 ± 0.0073
TGAGGACCCT	1.02 ± 0.025
TGTTAAGATA	1.02 ± 0.092
ACGGCAACAT	1.31 ± 0.1
CTTAAAGTTA	1.01 ± 0.018
CCGATAGGCA	1.124 ± 0.0038
GGGGGTCGCG	0.991 ± 0.034
ATTTGCAGTG	0.994 ± 0.021
TGGATAAGAG	0.975 ± 0.019
TCCGGGGTTG	0.988 ± 0.046
TTACATATGT	1.02 ± 0.021
TACCGGGTCT	1.032 ± 0.005
TAAGGCCGGG	0.9809 ± 0.0045
TGGTCCTATG	1.01 ± 0.054
GGGGCGGATG	0.968 ± 0.013
GCGGTTCCTG	0.9829 ± 0.0076
TAATGGTGT	1.02 ± 0.041
GTGTTTTTCC	1.41 ± 0.49
TGTTATCAGC	1 ± 0.047

Sequence	switch fluorescence ratio
CATCGGAGGA	1.02 ± 0.025
GGGGGAAGTC	1.01 ± 0.034
TATTGTATGC	0.996 ± 0.037
TGATTGAGGA	0.981 ± 0.027
GTAGTAATTG	1.075 ± 0.0065
GGTTAGGGAG	1.002 ± 0.0089
ATTCTTAGGG	1.12 ± 0.27
ATGATTAGTT	1.01 ± 0.046
CTGTCTGGGG	0.9737 ± 0.0033
GGGATAGGCC	1.02 ± 0.032
CTGGAGGACT	1.026 ± 0.0098
TGAGTCAGTG	1.0116 ± 0.00046
TTCGGGTGGT	1.04 ± 0.05
CCAAAAGGAT	1.01 ± 0.012
CCAATCGGGG	1.03 ± 0.087
CTAGGTTGCA	0.9871 ± 0.0052
TCTACTGGGG	0.994 ± 0.029
TGTTTGGGGT	0.996 ± 0.055
CGCATTCGTG	1.08 ± 0.029
AGTTCGGGGA	0.992 ± 0.014
GCAATTTTAG	1.03 ± 0.035
ACTGCTGAAT	0.99 ± 0.045
AGTCGTGGGC	0.98 ± 0.041

Sequence	switch fluorescence ratio
TGAGGAATGT	1.0157 ± 0.00058
TCAAAAGGTG	1.33 ± 0.22
TGAGGAAAGA	0.988 ± 0.035
TTGAAGGGGT	1.08 ± 0.1
ATTGGGGGAG	0.987 ± 0.033
AGGGCAGGTG	2.65 ± 0.13
TGAGTTTGCG	1.01 ± 0.075
TTAAAGGGGC	1.03 ± 0.06
AATGTAAGTT	0.975 ± 0.025
TGTGGTGTGC	1.01 ± 0.022
TAATTAGGGT	1 ± 0.025
CGGAAGAATT	0.99422 ± 0.00026
AAGCATAGTC	1.06 ± 0.036
TGTATGAGCA	1.02 ± 0.011
AGGTATACCT	1.014 ± 0.0028
GGATAAAAGG	0.988 ± 0.011
TCTTGTGG	0.982 ± 0.012
GAGCAAAAAG	1.05 ± 0.042
TTGCCCCGTA	1.02 ± 0.023
TATGTGGACT	1 ± 0.057
TTTTCATTAG	1.03 ± 0.026
AATTGTAGGT	0.9731 ± 0.0046
TTTCGCTCGC	1.13 ± 0.02

Sequence	switch fluorescence ratio
TTAAACCCGC	1.08 ± 0.019
AAGGTTTCAT	1 ± 0.031
GGAGGTAATT	0.981 ± 0.027
ATTTGGCATC	1.41 ± 0.47
TTTTTCTAGT	1.01 ± 0.02
ACGGGAATTG	1.04 ± 0.019
GTTGGAGCTA	1.036 ± 0.0083
CCAGTTTACT	1.01 ± 0.042
TTCTTGCTAC	1.78 ± 0.036
TTACGGTGGT	1.03 ± 0.036
TCTAGTGGGG	1.01 ± 0.028
AGATCGCTTT	1.02 ± 0.029
TTTTGCACGC	1.28 ± 0.2
AAACAGGGAG	0.974 ± 0.075
TTGAATTAAG	0.982 ± 0.032
GGAGGGGGAA	1 ± 0.031
TTCTTCTCAA	1.15 ± 0.065
GGATGCAGAT	0.997 ± 0.0094
TTGGGGGCCA	0.9898 ± 0.0041
TTGGGCAGGA	1.06 ± 0.047
TGTAAGGAAC	1.26 ± 0.35
ATCGCTGGGA	0.972 ± 0.02
CGTTTTTACT	0.99 ± 0.052

Sequence	switch fluorescence ratio
GGTGTACCGG	1.004 ± 0.0092
ACTTTTTTTA	1.022 ± 0.01
CGCGGGGCAC	1.062 ± 0.0025
ACAGGGGTGT	1.09 ± 0.014
AGATGCCTGA	0.989 ± 0.035
GATGTGTGCG	0.897 ± 0.13
ATAGGGATTC	1.02 ± 0.038
ATATGGTTGG	0.958 ± 0.016
ATTTGGTTA	0.993 ± 0.035
ACTGTTCTCG	1.01 ± 0.046
GTTTTGTGTT	0.992 ± 0.0047
TCAAGATAGG	1.014 ± 0.0028
CTGGGAAGGG	0.9281 ± 0.0061
CGTAAAATCG	0.995 ± 0.042
AGTATTGTCT	1.039 ± 0.003
GGGGGAGGAA	0.978 ± 0.026
TTGAGATAAG	0.9819 ± 0.0014
GGTGCAGGTA	0.984 ± 0.025
AGTTTGAGTA	1.01 ± 0.027
